Series [1] relates to HeLa Kyoto. The series can be described thus: solubility in G1/S (NP-40 vs SDS abundance) (log2 ratio); higher = more soluble. Particulars: cell cycle stage: G1/S.
Series [2] has as its system HeLa Kyoto. Briefly: melting temperature (median over replicates), in situ; higher = more thermally stable.
Series [3] has as its system HeLa Kyoto. Briefly: thermal stability score vs G1/S (z-score of summed log2 fold changes over temperatures); higher = more thermally stable than in G1/S.
Series [4] concerns HeLa Kyoto. Briefly: solubility change mitosis vs G1/S (difference of NP-40 vs SDS log2 ratios) (log2 ratio difference); higher = more soluble in mitosis.
Where [5] appears, read: cell cycle stage: early G1 (4.5 h after nocodazole release).

Experimental findings from the supplement of paper PMC5998384 are described below.
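For melting temperature (median over replicates), in situ in this document: HeLa Kyoto cells synchronized by double thymidine or nocodazole block, proteins quantified by TMT10plex mass spectrometry, three independent biological replicates.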
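For solubility change mitosis vs G1/S (difference of NP-40 vs SDS log2 ratios) in this document: synchronized HeLa Kyoto cells (double thymidine block for G1/S, nocodazole release for mitosis), protein amounts in NP-40 versus SDS lysates quantified by mass spectrometry, three biological replicates.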
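For solubility in G1/S (NP-40 vs SDS abundance) in this document: HeLa Kyoto cells arrested at G1/S by double thymidine block, proteins quantified by TMT10plex mass spectrometry in mild NP-40 versus SDS extracts, three biological replicates.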
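For thermal stability score vs G1/S (z-score of summed log2 fold changes over temperatures) in this document: synchronized HeLa Kyoto cells, proteins quantified by TMT10plex mass spectrometry, three biological replicates, mitosis taken 0.5 h after nocodazole release, G1/S directly after double thymidine block.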

Turning to “MEIGTEISRKIRSAIKGKLQELGAYVDEELPDYIMVMVANKKSQDQMTEDLSLFLGNNTIRFTVWLHGVLDKLRSVTTEPSSLKSSDTNIFDSNVPSNKSNFSRGDERRHEAAVPPLAIPSARPEKRDSRVSTSSQESKTTNVRQTYDDGAATRLMSTVKPLREPAPSEDVIDIKPEPDDLIDEDLNFVQENPLSQKKPTVTLTYGSSRPSIEIYRPPASRNADSGVHLNRLQFQQQQNSIHAAKQLDMQSSWVYETGRLCEPEVLNSLEETYSPFFRNNSEKMSMEDENFRKRKLPVVSSVVKVKKFNHDGEEEEEDDDYGSRTGSISSSVSVPAKPERRPSLPPSKQANKNLILKAISEAQESVTKTTNYSTVPQKQTLPVAPRTRTSQEELLAEVVQGQSRTPRISPPIKEEETKGDSVEKNQGTQQRQLLSRLQIDPVMAETLQMSQDYYDMESMVHADTRSFILKKPKLSEEVVVAPNQESGMKTADSLRVLSGHLMQTRDLVQPDKPASPKFIVTLDGVPSPPGYMSDQEEDMCFEGMKPVNQTAASNKGLRGLLHPQQLHLLSRQLEDPNGSFSNAEMSELSVAQKPEKLLERCKYWPACKNGDECAYHHPISPCKAFPNCKFAEKCLFVHPNCKYDAKCTKPDCPFTHVSRRIPVLSPKPAVAPPAPPSSSQLCRYFPACKKMECPFYHPKHCRFNTQCTRPDCTFYHPTINVPPRHALKWIRPQTSE [ZC3H14]”, the “solubility in G1/S (log2)” value with HeLa Kyoto [1] is -0.475. Also, the melting temperature is 49.7 °C in the series on HeLa Kyoto [2] (cell cycle stage: G1/S) and 51.2 °C in the series on HeLa Kyoto [2] (cell cycle stage: mitosis). In addition, the thermal stability score with HeLa Kyoto [3] (setting [5]) is -0.823; with HeLa Kyoto [3] (cell cycle stage: mitosis), 0.321. Also, in the series with HeLa Kyoto [4], the “solubility change mitosis (log2)” value was 0.656.
On to “MEIPGSLCKKVKLSNNAQNWGMQRATNVTYQAHHVSRNKRGQVVGTRGGFRGCTVWLTGLSGAGKTTVSMALEEYLVCHGIPCYTLDGDNIRQGLNKNLGFSPEDREENVRRIAEVAKLFADAGLVCITSFISPYTQDRNNARQIHEGASLPFFEVFVDAPLHVCEQRDVKGLYKKARAGEIKGFTGIDSEYEKPEAPELVLKTDSCDVNDCVQQVVELLQERDIVPVDASYEVKELYVPENKLHLAKTDAETLPALKINKVDMQWVQVLAEGWATPLNGFMREREYLQCLHFDCLLDGGVINLSVPIVLTATHEDKERLDGCTAFALMYEGRRVAILRNPEFFEHRKEERCARQWGTTCKNHPYIKMVMEQGDWLIGGDLQVLDRVYWNDGLDQYRLTPTELKQKFKDMNADAVFAFQLRNPVHNGHALLMQDTHKQLLERGYRRPVLLLHPLGGWTKDDDVPLMWRMKQHAAVLEEGVLNPETTVVAIFPSPMMYAGPTEVQWHCRARMVAGANFYIVGRDPAGMPHPETGKDLYEPSHGAKVLTMAPGLITLEIVPFRVAAYNKKKKRMDYYDSEHHEDFEFISGTRMRKLAREGQKPPEGFMAPKAWTVLTEYYKSLEKA [PAPSS1]”, for which the “solubility in G1/S (log2)” value in the series on HeLa Kyoto [1] came to 0.104. The figures for the melting temperature in the series on HeLa Kyoto [2] (cell cycle stage: G1/S) and with HeLa Kyoto [2] (cell cycle stage: mitosis) were 53.6 °C and 53.8 °C, respectively. Besides, the thermal stability score is 0.0766 in the series with HeLa Kyoto [3] (setting [5]) and -0.551 with HeLa Kyoto [3] (cell cycle stage: mitosis). The “solubility change mitosis (log2)” value in the series on HeLa Kyoto [4] is -0.174.
With “MEIPPTNYPASRAALVAQNYINYQQGTPHRVFEVQKVKQASMEDIPGRGHKYHLKFAVEEIIQKQVKVNCTAEVLYPSTGQETAPEVNFTFEGETGKNPDEEDNTFYQRLKSMKEPLEAQNIPDNFGNVSPEMTLVLHLAWVACGYIIWQNSTEDTWYKMVKIQTVKQVQRNDDFIELDYTILLHNIASQEIIPWQMQVLWHPQYGTKVKHNSRLPKEVQLE [LXN]”, the “solubility in G1/S (log2)” value with HeLa Kyoto [1] came to 0.224. In addition, the melting temperature with HeLa Kyoto [2] (cell cycle stage: G1/S) came out at 51.9 °C; with HeLa Kyoto [2] (cell cycle stage: mitosis), 52.3 °C. For the same sequence, the values for the thermal stability score in the series on HeLa Kyoto [3] (setting [5]) and in the series with HeLa Kyoto [3] (cell cycle stage: mitosis) were 0.745 and 0.0486, respectively. For the same sequence, the “solubility change mitosis (log2)” value with HeLa Kyoto [4] was -0.098.
In the case of “MEKIPVSAFLLLVALSYTLARDTTVKPGAKKDTKDSRPKLPQTLSRGWGDQLIWTQTYEEALYKSKTSNKPLMIIHHLDECPHSQALKKVFAENKEIQKLAEQFVLLNLVYETTDKHLSPDGQYVPRIMFVDPSLTVRADITGRYSNRLYAYEPADTALLLDNMKKALKLLKTEL [AGR2]”, in the series on HeLa Kyoto [1], the “solubility in G1/S (log2)” value stood at 0.49. For the same sequence, the values for the melting temperature with HeLa Kyoto [2] (cell cycle stage: G1/S) and with HeLa Kyoto [2] (cell cycle stage: mitosis) were 53.8 °C and 53.4 °C, respectively. The thermal stability score is 0.575 in the series on HeLa Kyoto [3] (setting [5]) and -1.24 in the series with HeLa Kyoto [3] (cell cycle stage: mitosis). Further, the “solubility change mitosis (log2)” value in the series with HeLa Kyoto [4] is 0.3.
On to “MEKRETFVQAVSKELVGEFLQFVQLDKEASDPFSLNELLDELSRKQKEELWQRLKNLLTDVLLESPVDGWQVVEAQGEDNMETEHGSKMRKSIEIIYAITSVILASVSVINESENYEALLECVIILNGILYALPESERKLQSSIQDLCVTWWEKGLPAKEDTGKTAFVMLLRRSLETKTGADVCRLWRIHQALYCFDYDLEESGEIKDMLLECFININYIKKEEGRRFLSCLFNWNINFIKMIHGTIKNQLQGLQKSLMVYIAEIYFRAWKKASGKILEAIENDCIQDFMFHGIHLPRRSPVHSKVREVLSYFHHQKKVRQGVEEMLYRLYKPILWRGLKARNSEVRSNAALLFVEAFPIRDPNLHAIEMDSEIQKQFEELYSLLEDPYPMVRSTGILGVCKITSKYWEMMPPTILIDLLKKVTGELAFDTSSADVRCSVFKCLPMILDNKLSHPLLEQLLPALRYSLHDNSEKVRVAFVDMLLKIKAVRAAKFWKICPMEHILVRLETDSRPVSRRLVSLIFNSFLPVNQPEEVWCERCVTLVQMNHAAARRFYQYAHEHTACTNIAKLIHVIRHCLNACIQRAVREPPEDEEEEDGREKENVTVLDKTLSVNDVACMAGLLEIIVILWKSIDRSMENNKEAKLYTINKFASVLPEYLKVFKDDRCKIPLFMLMSFMPASAVPPFSCGVISTLRSREEGAVDKSYCTLLDCLCSWGQVGHILELVDNWLPTEHAQAKSNTASKGRVQIHDTRPVKPELALVYIEYLLTHPKNRECLLSAPRKKLNHLLKALETSKADLESLLQTPGGKPRGFSEAAAPRAFGLHCRLSIHLQHKFCSEGKVYLSMLEDTGFWLESKILSFIQDQEEDYLKLHRVIYQQIIQTYLTVCKDVVMVGLGDHQFQMQLLQRSLGIMQTVKGFFYVSLLLDILKEITGSSLIQKTDSDEEVAMLLDTVQKVFQKMLECIARSFRKQPEEGLRLLYSVQRPLHEFITAVQSRHTDTPVHRGVLSTLIAGPVVEISHQLRKVSDVEELTPPEHLSDLPPFSRCLIGIIIKSSNVVRSFLDELKACVASNDIEGIVCLTAAVHIILVINAGKHKSSKVREVAATVHRKLKTFMEITLEEDSIERFLYESSSRTLGELLNS [NCAPG2]”, for which, in the series with HeLa Kyoto [1], the “solubility in G1/S (log2)” value was -0.313. The melting temperature in the series with HeLa Kyoto [2] (cell cycle stage: G1/S) amounted to 49.1 °C; with HeLa Kyoto [2] (cell cycle stage: mitosis) it was 48.1 °C. For the same sequence, the thermal stability score amounted to 0.33 in the series on HeLa Kyoto [3] (setting [5]) and 0.687 in the series on HeLa Kyoto [3] (cell cycle stage: mitosis). In the series on HeLa Kyoto [4], the “solubility change mitosis (log2)” value was -0.0274.
Regarding “MEKSSSCESLGSQPAAARPPSVDSLSSASTSHSENSVHTKSASVVSSDSISTSADNFSPDLRVLRESNKLAEMEEPPLLPGENIKDMAKDVTYICPFTGAVRGTLTVTNYRLYFKSMERDPPFVLDASLGVINRVEKIGGASSRGENSYGLETVCKDIRNLRFAHKPEGRTRRSIFENLMKYAFPVSNNLPLFAFEYKEVFPENGWKLYDPLLEYRRQGIPNESWRITKINERYELCDTYPALLVVPANIPDEELKRVASFRSRGRIPVLSWIHPESQATITRCSQPMVGVSGKRSKEDEKYLQAIMDSNAQSHKIFIFDARPSVNAVANKAKGGGYESEDAYQNAELVFLDIHNIHVMRESLRKLKEIVYPNIEETHWLSNLESTHWLEHIKLILAGALRIADKVESGKTSVVVHCSDGWDRTAQLTSLAMLMLDGYYRTIRGFEVLVEKEWLSFGHRFQLRVGHGDKNHADADRSPVFLQFIDCVWQMTRQFPTAFEFNEYFLITILDHLYSCLFGTFLCNSEQQRGKENLPKRTVSLWSYINSQLEDFTNPLYGSYSNHVLYPVASMRHLELWVGYYIRWNPRMKPQEPIHNRYKELLAKRAELQKKVEELQREISNRSTSSSERASSPAQCVTPVQTVV [MTMR2]”, the “solubility in G1/S (log2)” value in the series with HeLa Kyoto [1] was found to be 0.0322. Also, the melting temperature in the series on HeLa Kyoto [2] (cell cycle stage: G1/S) was 53.4 °C; in the series on HeLa Kyoto [2] (cell cycle stage: mitosis), 53 °C. The thermal stability score with HeLa Kyoto [3] (setting [5]) was -1.45; in the series on HeLa Kyoto [3] (cell cycle stage: mitosis), -1.51. Further, the “solubility change mitosis (log2)” value with HeLa Kyoto [4] is -0.12.
